Experimental data reported in patent US9663581.

Target: FcγRIIIa on NK cells (human) (UniProt P08637)
Assay: cell-based or functional assay

Sequence of UniProt P08637 (P08637 17-254): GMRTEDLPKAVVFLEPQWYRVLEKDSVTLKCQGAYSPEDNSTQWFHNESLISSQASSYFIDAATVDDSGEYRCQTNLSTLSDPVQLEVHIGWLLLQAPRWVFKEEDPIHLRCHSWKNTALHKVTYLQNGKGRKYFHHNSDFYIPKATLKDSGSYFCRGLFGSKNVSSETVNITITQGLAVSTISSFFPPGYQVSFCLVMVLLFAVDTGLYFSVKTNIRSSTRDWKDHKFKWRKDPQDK

wild type rituximab (antibody)
ADCC EC50 (LDH release, Raji target cells, human PBMC effector cells): 0.046 µg/mL
